Experimental data published in article doi:10.1101/2025.09.11.675682 (2025).

B1: PLC-γ1 (Phospholipase C-γ1), 1–1219 (enzyme)
chain: MAGAASPCANGCGPGAPSDAEVLHLCRSLEVGTVMTLFYSKKSQRPERKTFQVKLETRQITWSRGADKIEGAIDIREIKEIRPGKTSRDFDRYQEDPAFRPDQSHCFVILYGMEFRLKTLSLQATSEDEVNMWIKGLTWLMEDTLQAPTPLQIERWLRKQFYSVDRNREDRISAKDLKNMLSQVNYRVPNMRFLRERLTDLEQRSGDITYGQFAQLYRSLMYSAQKTMDLPFLEASTLRAGERPELCRVSLPEFQQFLLDYQGELWAVDRLQVQEFMLSFLRDPLREIEEPYFFLDEFVTFLFSKENSVWNSQLDAVCPDTMNNPLSHYWISSSHNTYLTGDQFSSESSLEAYARCLRMGCRCIELDCWDGPDGMPVIYHGHTLTTKIKFSDVLHTIKEHAFVASEYPVILSIEDHCSIAQQRNMAQYFKKVLGDTLLTKPVEISADGLPSPNQLKRKILIKHKKLAEGSAYEEVPTSMMYSENDISNSIKNGILYLEDPVNHEWYPHYFVLTSSKIYYSEETSSDQGNEDEEEPKEVSSSTELHSNEKWFHGKLGAGRDGRHIAERLLTEYCIETGAPDGSFLVRESETFVGDYTLSFWRNGKVQHCRIHSRQDAGTPKFFLTDNLVFDSLYDLITHYQQVPLRCNEFEMRLSEPVPQTNAHESKEWYHASLTRAQAEHMLMRVPRDGAFLVRKRNEPNSYAISFRAEGKIKHCRVQQEGQTVMLGNSEFDSLVDLISYYEKHPLYRKMKLRYPINEEALEKIGTAEPDYGALYEGRNPGFYVEANPMPTFKCAVKALFDYKAQREDELTFIKSAIIQNVEKQEGGWWRGDYGGKKQLWFPSNYVEEMVNPVALEPEREHLDENSPLGDLLRGVLDVPACQIAIRPEGKNNRLFVFSISMASVAHWSLDVAADSQEELQDWVKKIREVAQTADARLTEGKIMERRKKIALELSELVVYCRPVPFDEEKIGTERACYRDMSSFPETKAEKYVNKAKGKKFLQYNRLQLSRIYPKGQRLDSSNYDPLPMWICGSQLVALNFQTPDKPMQMNQALFMTGRHCGYVLQPSTMRDEAFDPFDKSSLRGLEPCAISIEVLGARHLPKNGRGIVCPFVEIEVAGAEYDSTKQKTEFVVDNGLNPVWPAKPFHFQISNPEFAFLRFVVYEEDMFSDQNFLAQATFPVKGLKTGYRAVPLKNNYSEDLELASLLIKIDIFPAKENGD

Columns and labels:
Experiment in all cases: ITC
[1] = target: SLP-76 PRR peptide (aa 185–200), high affinity mutant (UniProt Q13094 185-200)
[2] = target: T1, LAT 125-178 (Homo sapiens, UniProt O43561)
T1 chain: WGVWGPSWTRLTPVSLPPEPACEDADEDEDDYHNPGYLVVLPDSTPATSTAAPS

[3] = target: T2, SLP-76 159-533 (Homo sapiens, UniProt Q13094)
T2 chain: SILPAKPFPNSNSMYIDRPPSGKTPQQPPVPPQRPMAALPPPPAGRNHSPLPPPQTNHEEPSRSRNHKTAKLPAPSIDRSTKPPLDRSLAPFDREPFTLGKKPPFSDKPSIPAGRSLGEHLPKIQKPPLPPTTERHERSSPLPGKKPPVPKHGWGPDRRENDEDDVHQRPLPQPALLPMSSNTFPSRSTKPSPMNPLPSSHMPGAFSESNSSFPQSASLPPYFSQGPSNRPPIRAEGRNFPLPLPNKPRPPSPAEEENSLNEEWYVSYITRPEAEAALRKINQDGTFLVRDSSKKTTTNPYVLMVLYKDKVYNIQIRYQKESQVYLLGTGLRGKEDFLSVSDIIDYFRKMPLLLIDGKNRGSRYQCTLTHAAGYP

[4] = target: B1

Q: How did the Kd [1] turn out when B1 was run?
A: 1000 nM

B2: PLC-γ1 1-1219 (protein)
chain: MAGAASPCANGCGPGAPSDAEVLHLCRSLEVGTVMTLFYSKKSQRPERKTFQVKLETRQITWSRGADKIEGAIDIREIKEIRPGKTSRDFDRYQEDPAFRPDQSHCFVILYGMEFRLKTLSLQATSEDEVNMWIKGLTWLMEDTLQAPTPLQIERWLRKQFYSVDRNREDRISAKDLKNMLSQVNYRVPNMRFLRERLTDLEQRSGDITYGQFAQLYRSLMYSAQKTMDLPFLEASTLRAGERPELCRVSLPEFQQFLLDYQGELWAVDRLQVQEFMLSFLRDPLREIEEPYFFLDEFVTFLFSKENSVWNSQLDAVCPDTMNNPLSHYWISSSHNTYLTGDQFSSESSLEAYARCLRMGCRCIELDCWDGPDGMPVIYHGHTLTTKIKFSDVLHTIKEHAFVASEYPVILSIEDHCSIAQQRNMAQYFKKVLGDTLLTKPVEISADGLPSPNQLKRKILIKHKKLAEGSAYEEVPTSMMYSENDISNSIKNGILYLEDPVNHEWYPHYFVLTSSKIYYSEETSSDQGNEDEEEPKEVSSSTELHSNEKWFHGKLGAGRDGRHIAERLLTEYCIETGAPDGSFLVRESETFVGDYTLSFWRNGKVQHCRIHSRQDAGTPKFFLTDNLVFDSLYDLITHYQQVPLRCNEFEMRLSEPVPQTNAHESKEWYHASLTRAQAEHMLMRVPRDGAFLVRKRNEPNSYAISFRAEGKIKHCRVQQEGQTVMLGNSEFDSLVDLISYYEKHPLYRKMKLRYPINEEALEKIGTAEPDYGALYEGRNPGFYVEANPMPTFKCAVKALFDYKAQREDELTFIKSAIIQNVEKQEGGWWRGDYGGKKQLWFPSNYVEEMVNPVALEPEREHLDENSPLGDLLRGVLDVPACQIAIRPEGKNNRLFVFSISMASVAHWSLDVAADSQEELQDWVKKIREVAQTADARLTEGKIMERRKKIALELSELVVYCRPVPFDEEKIGTERACYRDMSSFPETKAEKYVNKAKGKKFLQYNRLQLSRIYPKGQRLDSSNYDPLPMWICGSQLVALNFQTPDKPMQMNQALFMTGRHCGYVLQPSTMRDEAFDPFDKSSLRGLEPCAISIEVLGARHLPKNGRGIVCPFVEIEVAGAEYDSTKQKTEFVVDNGLNPVWPAKPFHFQISNPEFAFLRFVVYEEDMFSDQNFLAQATFPVKGLKTGYRAVPLKNNYSEDLELASLLIKIDIFPAKENGD
modifications: pY132, pY171
Q: With B2 as the binder, how does the Kd [2] read?
A: 84 nM

B3: Gads 1-322 (protein)
chain: MEAVAKFDFTASGEDELSFHTGDVLKILSNQEEWFKAELGSQEGYVPKNFIDIQFPKWFHEGLSRHQAENLLMGKEVGFFIIRASQSSPGDFSISVRHEDDVQHFKVMRDNKGNYFLWTEKFPSLNKLVDYYRTNSISRQKQIFLRDRTREDQGHRGNSLDRRSQGGPHLSGAVGEEIRPSMNRKLSDHPPTLPLQQHQHQPQPPQYAPAPQQLQQPPQQRYLQHHHFHQERRGGSLDINDGHCGTGLGSEMNAALMHRRHTDPVQLQAAGRVRWARALYDFEALEDDELGFHSGEVVEVLDSSNPSWWTGRLHNKLGLFPA
Q: How did the Kd [3] turn out when B3 was run?
A: 3.6 nM

B4: Gads 1-322 (protein)
chain: MEAVAKFDFTASGEDELSFHTGDVLKILSNQEEWFKAELGSQEGYVPKNFIDIQFPKWFHEGLSRHQAENLLMGKEVGFFIIRASQSSPGDFSISVRHEDDVQHFKVMRDNKGNYFLWTEKFPSLNKLVDYYRTNSISRQKQIFLRDRTREDQGHRGNSLDRRSQGGPHLSGAVGEEIRPSMNRKLSDHPPTLPLQQHQHQPQPPQYAPAPQQLQQPPQQRYLQHHHFHQERRGGSLDINDGHCGTGLGSEMNAALMHRRHTDPVQLQAAGRVRWARALYDFEALEDDELGFHSGEVVEVLDSSNPSWWTGRLHNKLGLFPA
modifications: pY132, pY171
Q: For B4, which Kd [2] is on record?
A: 213 nM

Q: For QPPVPPQRPMAALPPP [SLP-76 PRR peptide (aa 185–200), wild type], which Kd [4] is on record?
A: 2360 nM
